Source: article PMC9300119, “Proteins DotY and DotZ modulate the dynamics and localization of the type IVB coupling complex of Legionella pneumophila” (Molecular Microbiology, 2021)

T1: DotL with a Strep-tag at the C-terminus (Legionella pneumophila (strain Lp01), UniProt Q5ZYC6 1-783)
T1 construct: also called DotL_(Strep); DotL_(strep)
T1 sequence: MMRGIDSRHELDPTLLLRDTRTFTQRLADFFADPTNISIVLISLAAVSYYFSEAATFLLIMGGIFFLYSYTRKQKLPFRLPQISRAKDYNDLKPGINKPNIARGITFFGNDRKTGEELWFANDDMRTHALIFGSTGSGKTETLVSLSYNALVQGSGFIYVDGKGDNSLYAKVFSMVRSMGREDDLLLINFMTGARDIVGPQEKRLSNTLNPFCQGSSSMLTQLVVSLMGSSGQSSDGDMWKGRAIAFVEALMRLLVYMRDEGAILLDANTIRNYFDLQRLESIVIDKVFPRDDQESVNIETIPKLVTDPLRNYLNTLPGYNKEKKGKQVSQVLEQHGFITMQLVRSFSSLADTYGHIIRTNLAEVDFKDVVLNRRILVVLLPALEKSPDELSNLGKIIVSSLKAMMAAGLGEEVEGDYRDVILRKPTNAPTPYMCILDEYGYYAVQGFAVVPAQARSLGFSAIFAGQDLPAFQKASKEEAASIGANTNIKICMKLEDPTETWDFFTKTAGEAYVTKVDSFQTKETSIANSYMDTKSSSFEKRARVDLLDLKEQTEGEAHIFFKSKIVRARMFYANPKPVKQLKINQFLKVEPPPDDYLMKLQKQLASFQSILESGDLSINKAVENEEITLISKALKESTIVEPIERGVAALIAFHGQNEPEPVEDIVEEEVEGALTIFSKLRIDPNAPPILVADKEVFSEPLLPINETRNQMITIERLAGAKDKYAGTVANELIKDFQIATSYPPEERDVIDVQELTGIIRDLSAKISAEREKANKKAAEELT

B1: DotZ (natural protein)
chain: MDEIKKDDELSQWLSTYGTITAERILGRYNISLPQDEILEAINIPSSFYRHLLQIPLKNVLNGIVIQQASDYHVYAQKLLIDYLLSGESSKEPDSQGAGTRESLEDERQRLVQLGDEFHKLELEQDNLIASSQASLMKISIDWNTKLETTLSKLNSLYKNTNSKIKKNAIRKALIKAFIHCDLVKDQSQKNKYQLIDKLNQTLAVSVGAELKESILTNLSELFQILEALNTKLDEFTDRTNHLSQQAKSFRTQFYEVILRIIELIKLLPEYKIDPAQDAINREPLYFDRTIGER
notes: also called lpg1549
B2: DotN (natural protein)
chain: MNVNQTMADNQQRCELKLIASPGSWRLYSARKIDERFKSYEQKIFQRDRYTCQFCGFQARLYQDIVNLDGDYTNNRLSNLVTACCFCAQCFFVESVGVGGYGGGTLIYLPELTQAELNSLCHVLFCAITNDTGYKSSAQNIYRSFKFRSQIVEEKFGEGTSDPAIFGQLMIDSGVNSEEIREKLFKNIRLLPSRAKFRKQIEKWAASALEEIAD
B3: DotM (natural protein)
chain: MYIEMAQQQQQSGSDNSMAPVWIVILLFITAYFVWALAHQYIVSFVFTINIWQARLVNLFLNNQLLANQIYLMQTLDPNTVNWDQMVTVMRAVGDYMRYPVICILVVLAFVLYNSNVTLKYRKTYDMKSLRAQEQFNWPAIMPIVKEDLVSQDVNKGPWAMALTPMEFARKYNLLRKDDALLDNPVPGEEMTAGIRRGDAKRVFTMQLGPYWDGFERCSPQAYALSAVFMARMNRDRDAANNILKVLDKTFVDGKPDFSVARPVMKKYQNSELVQEVVAKHAYVLTVIASLLEAAREDGVVPSSEFLWLKPVDRRLWYMLNCVGRQTPYSEVAGPFAHWKAEKEMGRRSLVPMIDEAIRALEIAVKEVRLTPRQMEELEP
B4: DotY (natural protein)
chain: MPKYTLPTRDALLKAMQVGETSIEAAEYMATRFEQILTKAKLLPECNDMLEKIKEYAQFVKFKLLSSAQVWSGQERPTSDYQNTQENKAEFLASHLEGLPSGLKLEVAIGDDAKILRGFSSNGKMVEGDQLKTMDGLLEGWLAKNSLAISGGAVVKIDNTGNQTKVDPQEIRQLINDSEKGVAKYFADKGVGMEVAQRTYQEPKALETKREEIRQEIESGAEAPTTQSIR
notes: also called lpg0294

Legend:
[1] = biological target: B3; test: cryo-EM structure; details: both partners purified
[2] = biological target: T1, DotL with a Strep-tag at the C-terminus; test: cryo-EM structure; details: both partners purified
[3] = biological target: B1; test: cryo-EM structure; details: both partners purified
[4] = biological target: T1, DotL with a Strep-tag at the C-terminus; test: affinity purification with mass spectrometry; details: partners not purified

B1: binds [1].

B2: binds [2]; binds [3].

B3: binds [4].

B4: binds [3].
